Measured values as given in patent US20140274782A1, “AFFINITY REAGENTS AND METHODS FOR DETECTION, PURIFICATION, AND PROTEOMIC ANALYSIS OF METHYLATED PROTEINS” (The Board of Trustees of the Leland Stanford Junior …, priority 2013, published 2014).

What was measured:
[1] = molecular target: T1, G9a and GLP (Homo sapiens, UniProt Q96KQ7+Q9H9B1); test: Triple SILAC pull-down after UNC0638 treatment of 293T cells, DMSO/UNC0638 ratio of protein captured by 3×MBT; format: cell-based; conditions: for Relative to UNC0638 UNC Heavy: UNC0638 in heavy SILAC media; for Relative to UNC0638 UNC Light: UNC0638 in light SILAC media; for Relative to UNC0638 Average: average of UNC Light and UNC Heavy experiments;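 for all read-outs here: mass spectrometry (Q-Exactive) SILAC quantitation, DMSO/UNC0638 ratio computed after subtracting 3×MBTD355N mutant pull-down background, only proteins with at least twofold 3×MBT over mutant signal considered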
T1 construct: endogenous in cells; host or cells: HEK 293T
T1 sequence (Q96KQ7 2-1210 limits assumed): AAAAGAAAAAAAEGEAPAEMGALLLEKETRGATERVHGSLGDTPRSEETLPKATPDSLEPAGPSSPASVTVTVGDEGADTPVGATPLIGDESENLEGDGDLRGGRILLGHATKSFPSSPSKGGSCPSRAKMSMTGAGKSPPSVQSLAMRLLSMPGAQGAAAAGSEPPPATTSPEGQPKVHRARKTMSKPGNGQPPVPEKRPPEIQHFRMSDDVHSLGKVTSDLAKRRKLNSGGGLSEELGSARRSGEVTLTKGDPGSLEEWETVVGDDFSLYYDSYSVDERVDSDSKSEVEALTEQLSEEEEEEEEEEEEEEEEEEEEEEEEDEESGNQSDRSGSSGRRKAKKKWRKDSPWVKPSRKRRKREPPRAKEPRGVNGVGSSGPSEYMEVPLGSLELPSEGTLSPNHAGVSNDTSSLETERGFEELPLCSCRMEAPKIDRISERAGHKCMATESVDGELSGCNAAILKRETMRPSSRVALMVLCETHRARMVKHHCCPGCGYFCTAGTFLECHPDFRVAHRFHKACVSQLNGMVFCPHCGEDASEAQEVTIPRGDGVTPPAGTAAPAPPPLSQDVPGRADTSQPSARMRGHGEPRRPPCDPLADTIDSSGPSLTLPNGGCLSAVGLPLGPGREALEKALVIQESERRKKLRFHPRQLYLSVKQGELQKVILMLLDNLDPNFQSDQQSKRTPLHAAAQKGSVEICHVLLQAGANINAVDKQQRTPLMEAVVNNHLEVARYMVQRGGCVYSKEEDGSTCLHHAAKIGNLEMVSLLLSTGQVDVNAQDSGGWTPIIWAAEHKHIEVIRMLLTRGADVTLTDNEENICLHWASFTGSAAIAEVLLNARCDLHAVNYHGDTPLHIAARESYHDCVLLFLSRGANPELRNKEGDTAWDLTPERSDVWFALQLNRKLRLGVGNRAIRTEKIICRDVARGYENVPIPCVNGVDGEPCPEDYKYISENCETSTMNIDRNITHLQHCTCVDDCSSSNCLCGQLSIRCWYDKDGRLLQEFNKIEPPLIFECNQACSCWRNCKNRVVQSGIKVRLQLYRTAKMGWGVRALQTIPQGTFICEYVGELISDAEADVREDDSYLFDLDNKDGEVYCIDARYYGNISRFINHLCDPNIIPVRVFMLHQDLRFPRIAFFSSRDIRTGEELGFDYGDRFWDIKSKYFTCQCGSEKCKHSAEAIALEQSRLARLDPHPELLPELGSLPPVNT
T1 sequence (Q9H9B1 2-1298 limits assumed): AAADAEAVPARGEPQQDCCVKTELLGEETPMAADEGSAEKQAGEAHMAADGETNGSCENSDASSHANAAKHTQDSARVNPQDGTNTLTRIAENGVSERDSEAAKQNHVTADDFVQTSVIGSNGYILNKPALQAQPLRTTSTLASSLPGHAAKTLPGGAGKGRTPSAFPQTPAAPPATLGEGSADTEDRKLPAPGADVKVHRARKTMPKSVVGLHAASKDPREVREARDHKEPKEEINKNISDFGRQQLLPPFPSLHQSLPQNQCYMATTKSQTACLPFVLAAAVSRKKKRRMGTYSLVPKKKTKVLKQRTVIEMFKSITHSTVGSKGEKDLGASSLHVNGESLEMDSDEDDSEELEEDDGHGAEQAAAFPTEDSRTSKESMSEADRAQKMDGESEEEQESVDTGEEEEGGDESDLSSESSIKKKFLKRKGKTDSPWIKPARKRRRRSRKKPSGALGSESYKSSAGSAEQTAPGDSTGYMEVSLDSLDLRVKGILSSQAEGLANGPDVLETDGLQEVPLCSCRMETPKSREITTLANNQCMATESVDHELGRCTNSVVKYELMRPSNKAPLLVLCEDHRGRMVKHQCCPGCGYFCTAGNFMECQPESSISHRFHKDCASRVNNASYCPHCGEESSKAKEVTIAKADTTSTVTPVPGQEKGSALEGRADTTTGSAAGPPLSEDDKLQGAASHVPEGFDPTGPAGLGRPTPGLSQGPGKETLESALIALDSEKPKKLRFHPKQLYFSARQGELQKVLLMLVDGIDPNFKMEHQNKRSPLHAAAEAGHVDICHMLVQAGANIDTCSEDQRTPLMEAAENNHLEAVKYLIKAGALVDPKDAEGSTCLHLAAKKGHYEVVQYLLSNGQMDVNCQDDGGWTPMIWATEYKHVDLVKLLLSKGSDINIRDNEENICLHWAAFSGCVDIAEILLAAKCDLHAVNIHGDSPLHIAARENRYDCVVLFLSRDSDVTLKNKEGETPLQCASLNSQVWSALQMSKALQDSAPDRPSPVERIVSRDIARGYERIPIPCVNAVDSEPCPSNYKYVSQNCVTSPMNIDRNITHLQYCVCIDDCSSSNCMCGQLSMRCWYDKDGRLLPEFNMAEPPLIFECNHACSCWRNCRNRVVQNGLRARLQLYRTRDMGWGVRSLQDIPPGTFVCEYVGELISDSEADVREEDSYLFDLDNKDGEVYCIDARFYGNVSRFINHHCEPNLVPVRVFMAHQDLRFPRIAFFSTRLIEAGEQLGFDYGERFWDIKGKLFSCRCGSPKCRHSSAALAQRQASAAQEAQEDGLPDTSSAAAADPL

[2] = system: 3×MBT domain of L3MBTL1; test: Triple SILAC pull-down, 3xMBT/3xMBTD355N ratio (cytoplasmic, nuclear and chromatin fractions of 293T cells); format: binding, human; conditions: for 3xMBT/D355N UNC Heavy: experiment with UNC0638 in heavy SILAC media; for 3xMBT/D355N UNC Light: experiment with UNC0638 in light SILAC media;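 for all read-outs here: proteins quantified with MaxQuant, requiring at least two unique peptides and quantification in both label directions, normalized to the mean of proteins from a digested loading control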
[3] = SILAC ratio DMSO relative to UNC0638, pull-down with 3xMBT, all values in log base 2
[4] = SILAC ratio 3xMBT vs 3xMBTD355N pull-down, 293T cells, all values in log base 2
[5] = SILAC ratio DMSO/UNC0638 of protein pulled down with 3xMBT
[6] = SILAC ratio, pull-down 3xMBT vs 3xMBTD355N

Substance	Relative to UNC0638 UNC Heavy [1, 3] [log base 2]	Relative to UNC0638 UNC Light [1, 3] [log base 2]	Relative to UNC0638 Average ([1]; all values in log base 2) [log base 2]	3xMBT/D355N UNC Heavy [2, 4] [log base 2]	3xMBT/D355N UNC Light [2, 4] [log base 2]	Relative to UNC0638 UNC Heavy [1, 5] [log base 2]	Relative to UNC0638 UNC Light [1, 5] [log base 2]	Relative to UNC0638 Average [1] [log base 2]	3xMBT/D355N UNC Heavy [2, 6] [log base 2]	3xMBT/D355N UNC Light [2, 6] [log base 2]
EEF1G	−0.03	−0.77	−0.40	−0.67	−0.28	–	–	–	–	–
EFTUD2	–	–	–	–	–	0.36	0.33	0.34	1.98	2.07
EIF4A1	–	–	–	–	–	0.30	0.05	0.18	3.59	3.68
EIF4B	−0.32	0.03	−0.15	3.26	2.50	–	–	–	–	–
EIF4E	–	–	–	–	–	0.04	0.31	0.18	2.40	2.40
EIF4G1	–	–	–	–	–	0.07	0.25	0.16	3.18	3.31
ELAVL1	–	–	–	–	–	0.21	0.36	0.29	1.93	2.42
EPRS	−0.64	0.63	−0.01	0.46	1.98	–	–	–	–	–
FAM98A	–	–	–	–	–	0.57	0.19	0.38	2.99	4.03
FBXO22	0.58	−0.59	0.00	3.56	0.77	–	–	–	–	–
FERMT2	−1.93	−0.07	−1.00	3.33	1.42	–	–	–	–	–
